Results reported in publication PMC5658359, “A potent small-molecule inhibitor of the DCN1-UBC12 interaction that selectively blocks cullin 3 neddylation” (Nature Communications, 2017).
Each block holds one binder with its values, some of them ahead of it. Primed or numbered codes have the meaning given here. Where no end group is shown, it is not given here. [ ]: non-standard residue; d: D form. Ala(benzothiazol-2-yl)′ = not defined here; Phe(2-Cl) = N[C@@H](Cc1ccccc1Cl)C(=O)O; 1Nal = N[C@@H](Cc1cccc2ccccc12)C(=O)O; 2Nal = N[C@@H](Cc1ccc2ccccc2c1)C(=O)O; hPhe = N[C@@H](CCc1ccccc1)C(=O)O

Target: T1, human DCN1 (residues 58–259), N-terminal His6 tag (human, UniProt Q96GG9 58-259)
T1 construct: DCN1 (defective in cullin neddylation 1), human, residues 58-259, cloned into pDEST17; residues 60-251 are visible in PDB 5UFI; also called defective in cullin neddylation 1; source: Rosetta2 cells, purified (Ni-NTA, Superdex 75); not shown: His6, N-terminal, kept
Assay: fluorescence polarisation; competitive: peptide added to pre-incubated DCN1 (50 nM) and FAM-labelled small-molecule probe 46 (5 nM); 100 mM phosphate buffer pH 6.5, 0.02% Tween-20, 2% DMSO; room temperature, 30 min; Ki calculated from IC50
Conditions: both partners purified

T1 sequence (Q96GG9 58-259): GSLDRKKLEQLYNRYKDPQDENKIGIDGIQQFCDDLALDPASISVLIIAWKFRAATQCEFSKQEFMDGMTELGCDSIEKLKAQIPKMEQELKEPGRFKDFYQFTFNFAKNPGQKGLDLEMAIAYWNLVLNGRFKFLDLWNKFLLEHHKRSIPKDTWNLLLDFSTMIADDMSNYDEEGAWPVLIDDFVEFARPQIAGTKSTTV

fold loss in binding affinity (against 5): 3 fold
B1: UBC12 seven-residue peptide (6) (peptide, UniProt P61081 1-7, looked up)
peptide: MIKLFSL
notes: UBC12, N-terminal 7 residues (Met1 to Leu7; Lys8 removed from 5); Terminal groups surmised Ac-...-NH2; source: synthetic peptide

binding result: binds
B2: UBC12 peptide 3 (peptide, UniProt P61081 1-10, looked up)
peptide: MIKLFSLKQQ
notes: Terminal groups surmised Ac-...-NH2; source: synthetic peptide

fold decrease in binding affinity (reference not named: 9 or 11): 6 fold
Binder: [hPhe]IKL [compound 12 (tetrapeptide 9 with Met1 replaced by homophenylalanine)]

fold decrease in binding affinity (against 11): 3 fold
Binder: [Phe(2-Cl)]IKL [compound 13 (11 with Cl at the ortho position of the phenyl ring)]

Ki: 354000 nM
Binder: [1Nal]IKL [compound 22 (11 with the phenyl replaced by naphthalen-1-yl)]

fold loss in binding affinity (against 6): 3 fold
B3: UBC12 peptide 7 (peptide, UniProt P61081 1-6, looked up)
peptide: MIKLFS
notes: UBC12, N-terminal 6 residues (Met1 to Ser6; Leu7 removed from 6); Terminal groups surmised Ac-...-NH2; source: synthetic peptide

Ki: 150 nM
Binder: [Ala(benzothiazol-2-yl)′]IKL [compound 24 (11 with the phenyl replaced by benzothiazol-2-yl)]

fold less potent than 24: 17 fold
Binder: [Ala(5-Cl-benzothiazol-2-yl)]IKL [compound 25 (24 with 5-Cl on the benzothiazol-2-yl)]

binding result: binds
B4: UBC12 peptide 4 (peptide, UniProt P61081 1-9, looked up)
peptide: MIKLFSLKQ
notes: as for B2

Ki: 5 nM
Binder: [Ala(6-isopropyl-benzothiazol-2-yl)]IKL [compound 27 (26 with the 6-Cl replaced by an isopropyl group)]

fold more potent than 24: 4 fold
Binder: [Ala(6-Cl-benzothiazol-2-yl)]IKL [compound 26 (24 with 6-Cl on the benzothiazol-2-yl)]

binding result: binds
B5: UBC12 peptide 2 (peptide 1 without Lys12) (peptide, UniProt P61081 1-11, looked up)
peptide: MIKLFSLKQQK
notes: UBC12, N-terminal 11 residues (truncation of Lys12 from the 12-residue peptide); Terminal groups surmised Ac-...-NH2; source: synthetic peptide

fold more potent than 11: 11 fold
Binder: [2Nal]IKL [compound 23 (11 with the phenyl replaced by naphthalen-2-yl)]

binding result: binds
B6: UBC12 peptide 8 (peptide, UniProt P61081 1-5, looked up)
peptide: MIKLF
notes: UBC12, N-terminal 5 residues (Met1 to Phe5; Ser6 deleted from 7); Terminal groups surmised Ac-...-NH2; source: synthetic peptide

binding result: binds
B7: UBC12 peptide 5 (peptide, UniProt P61081 1-8, looked up)
peptide: MIKLFSLK
notes: UBC12, N-terminal 8 residues (Met1 to Lys8); Terminal groups surmised Ac-...-NH2; source: synthetic peptide
